Results from patent US11999805.

Experiments:
SpyCas9 (S. pyogenes) = SpyCas9 (S. pyogenes) (UniProt Q99ZW2); assay: cell-based or functional assay
50-2-13 = tested on: T1, 50-2-13
T1 sequence: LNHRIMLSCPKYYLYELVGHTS

Peptide 99 = tested on: T2, Peptide 99
T2 sequence: RRSHIAWLLAMSLTWYS

Peptide 15 = tested on: T3, Peptide 15
T3 sequence: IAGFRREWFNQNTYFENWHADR

Peptide 60 = tested on: T4, Peptide 60
T4 sequence: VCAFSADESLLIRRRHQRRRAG

90-2-5 = tested on: T5, 90-2-5
T5 sequence: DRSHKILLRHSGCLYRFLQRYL

Peptide 50 = tested on: T6, Peptide 50
T6 sequence: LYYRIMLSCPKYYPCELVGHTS

82-2-28 = tested on: T7, 82-2-28
T7 sequence: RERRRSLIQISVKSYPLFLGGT

90-2-18 = tested on: T8, 90-2-18
T8 sequence: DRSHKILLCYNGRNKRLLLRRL

Peptide 61 = tested on: T9, Peptide 61
T9 sequence: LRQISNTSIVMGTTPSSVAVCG

99-2-2 = tested on: T10, 99-2-2
T10 sequence: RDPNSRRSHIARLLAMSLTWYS

63-2-87 = tested on: T11, 63-2-87
T11 sequence: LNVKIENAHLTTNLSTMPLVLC

63-2-27 = tested on: T12, 63-2-27
T12 sequence: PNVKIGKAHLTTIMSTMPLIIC

90-1-50 = tested on: T13, 90-1-50
T13 sequence: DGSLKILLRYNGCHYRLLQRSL

50-2-16 = tested on: T14, 50-2-16
T14 sequence: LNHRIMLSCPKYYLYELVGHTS

82-2-12 = tested on: T15, 82-2-12
T15 sequence: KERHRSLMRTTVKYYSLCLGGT

Peptide 73 = tested on: T16, Peptide 73
T16 sequence: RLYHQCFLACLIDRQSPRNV

60-1-56 = tested on: T17, 60-1-56
T17 sequence: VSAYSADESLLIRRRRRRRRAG

99-1-1 = tested on: T18, 99-1-1
T18 sequence: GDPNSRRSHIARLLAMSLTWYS

Peptide 90 = tested on: T19, Peptide 90
T19 sequence: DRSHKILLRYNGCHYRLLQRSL

82-2-21 = tested on: T20, 82-2-21
T20 sequence: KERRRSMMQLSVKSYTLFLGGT

90-1-18 = tested on: T21, 90-1-18
T21 sequence: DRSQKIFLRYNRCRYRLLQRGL

90-1-27 = tested on: T22, 90-1-27
T22 sequence: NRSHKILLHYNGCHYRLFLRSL

Peptide 91 = tested on: T23, Peptide 91
T23 sequence: VYDFYRMLSHFFLKGPSR

Peptide 63 = tested on: T24, Peptide 63
T24 sequence: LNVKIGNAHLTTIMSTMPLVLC

50-20-14 = tested on: T25, 50-20-14
T25 sequence: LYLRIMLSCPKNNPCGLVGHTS

Peptide 82 = tested on: T26, Peptide 82
T26 sequence: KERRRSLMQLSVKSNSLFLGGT

60-1-10 = tested on: T27, 60-1-10
T27 sequence: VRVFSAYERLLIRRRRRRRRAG

Peptide 80 = tested on: T28, Peptide 80
T28 sequence: TESIRSYFAMTIRRNH

AcrIIA4
reduced editing (compared to plasmid control), A549 GFP reporter cells (SpyCas9 (S. pyogenes)): 74%

SpyCas9
decrease in cleavage-based fluorescence at 200 µM peptide, FRET assay (50-2-13): All of the MPs drastically reduced SpyCas9 substrate cleavage at 200 µM with a greater than 88% decrease in fluorescence | substrate cleavage, denaturing 15% urea PAGE, peptide 200 µM (50-2-13): 17 hits were identified that reduced fluorescence and substrate cleavage in the Cas9 cleavage reaction (visualized by Gel) at 200 µM | % activity, FRET cleavage assay (Peptide 99): Peptide 99 significantly reduced activity of all three Cas9 variants at 100 and 200 µM (P<0.005) | substrate cleavage, FRET assay, peptide 200 to 12.5 µM (Peptide 99): the peptides inhibited substrate cleavage in a peptide concentration-dependent manner | % activity, FRET cleavage assay (Peptide 15): Peptide15 significantly reduced activity of CjeCas9 and SpyCas9 and SauCas9 at 200 µM (P<0.01) | substrate cleavage, FRET assay, peptide 200 to 12.5 µM (Peptide 15): the peptides inhibited substrate cleavage in a peptide concentration-dependent manner | % activity, FRET cleavage assay (Peptide 60): Peptide 60, 90, and 91 significantly reduced activity of SauCas9 and SpyCas9 at 200 µM (P<0.005) | substrate cleavage, FRET assay, peptide 200 to 12.5 µM (Peptide 60): the peptides inhibited substrate cleavage in a peptide concentration-dependent manner | decrease in cleavage-based fluorescence at 200 µM peptide, FRET assay (90-2-5): All of the MPs drastically reduced SpyCas9 substrate cleavage at 200 µM with a greater than 88% decrease in fluorescence | substrate cleavage, denaturing 15% urea PAGE, peptide 200 µM (90-2-5): 17 hits were identified that reduced fluorescence and substrate cleavage in the Cas9 cleavage reaction (visualized by Gel) at 200 µM | substrate cleavage, FRET assay, peptide 200 to 12.5 µM (Peptide 50): the peptides inhibited substrate cleavage in a peptide concentration-dependent manner | decrease in cleavage-based fluorescence at 200 µM peptide, FRET assay (82-2-28): All of the MPs drastically reduced SpyCas9 substrate cleavage at 200 µM with a greater than 88% decrease in fluorescence | substrate cleavage, denaturing 15% urea PAGE, peptide 200 µM (82-2-28): 17 hits were identified that reduced fluorescence and substrate cleavage in the Cas9 cleavage reaction (visualized by Gel) at 200 µM | decrease in cleavage-based fluorescence at 200 µM peptide, FRET assay (90-2-18): All of the MPs drastically reduced SpyCas9 substrate cleavage at 200 µM with a greater than 88% decrease in fluorescence | substrate cleavage, denaturing 15% urea PAGE, peptide 200 µM (90-2-18): 17 hits were identified that reduced fluorescence and substrate cleavage in the Cas9 cleavage reaction (visualized by Gel) at 200 µM | substrate cleavage, FRET assay, peptide 200 to 12.5 µM (Peptide 61): the peptides inhibited substrate cleavage in a peptide concentration-dependent manner | decrease in cleavage-based fluorescence at 200 µM peptide, FRET assay (99-2-2): All of the MPs drastically reduced SpyCas9 substrate cleavage at 200 µM with a greater than 88% decrease in fluorescence | substrate cleavage, denaturing 15% urea PAGE, peptide 200 µM (99-2-2): 17 hits were identified that reduced fluorescence and substrate cleavage in the Cas9 cleavage reaction (visualized by Gel) at 200 µM | decrease in cleavage-based fluorescence at 200 µM peptide, FRET assay (63-2-87): All of the MPs drastically reduced SpyCas9 substrate cleavage at 200 µM with a greater than 88% decrease in fluorescence | substrate cleavage, denaturing 15% urea PAGE, peptide 200 µM (63-2-87): 17 hits were identified that reduced fluorescence and substrate cleavage in the Cas9 cleavage reaction (visualized by Gel) at 200 µM | decrease in cleavage-based fluorescence at 200 µM peptide, FRET assay (63-2-27): All of the MPs drastically reduced SpyCas9 substrate cleavage at 200 µM with a greater than 88% decrease in fluorescence | substrate cleavage, denaturing 15% urea PAGE, peptide 200 µM (63-2-27): 17 hits were identified that reduced fluorescence and substrate cleavage in the Cas9 cleavage reaction (visualized by Gel) at 200 µM | decrease in cleavage-based fluorescence at 200 µM peptide, FRET assay (90-1-50): All of the MPs drastically reduced SpyCas9 substrate cleavage at 200 µM with a greater than 88% decrease in fluorescence | substrate cleavage, denaturing 15% urea PAGE, peptide 200 µM (90-1-50): 17 hits were identified that reduced fluorescence and substrate cleavage in the Cas9 cleavage reaction (visualized by Gel) at 200 µM | decrease in cleavage-based fluorescence at 200 µM peptide, FRET assay (50-2-16): All of the MPs drastically reduced SpyCas9 substrate cleavage at 200 µM with a greater than 88% decrease in fluorescence | substrate cleavage, denaturing 15% urea PAGE, peptide 200 µM (50-2-16): 17 hits were identified that reduced fluorescence and substrate cleavage in the Cas9 cleavage reaction (visualized by Gel) at 200 µM | decrease in cleavage-based fluorescence at 200 µM peptide, FRET assay (82-2-12): All of the MPs drastically reduced SpyCas9 substrate cleavage at 200 µM with a greater than 88% decrease in fluorescence | substrate cleavage, denaturing 15% urea PAGE, peptide 200 µM (82-2-12): 17 hits were identified that reduced fluorescence and substrate cleavage in the Cas9 cleavage reaction (visualized by Gel) at 200 µM | substrate cleavage, FRET assay, peptide 200 to 12.5 µM (Peptide 73): the peptides inhibited substrate cleavage in a peptide concentration-dependent manner | decrease in cleavage-based fluorescence at 200 µM peptide, FRET assay (60-1-56): All of the MPs drastically reduced SpyCas9 substrate cleavage at 200 µM with a greater than 88% decrease in fluorescence | substrate cleavage, denaturing 15% urea PAGE, peptide 200 µM (60-1-56): 17 hits were identified that reduced fluorescence and substrate cleavage in the Cas9 cleavage reaction (visualized by Gel) at 200 µM | decrease in cleavage-based fluorescence at 200 µM peptide, FRET assay (99-1-1): All of the MPs drastically reduced SpyCas9 substrate cleavage at 200 µM with a greater than 88% decrease in fluorescence | substrate cleavage, denaturing 15% urea PAGE, peptide 200 µM (99-1-1): 17 hits were identified that reduced fluorescence and substrate cleavage in the Cas9 cleavage reaction (visualized by Gel) at 200 µM | % activity, FRET cleavage assay (Peptide 90): Peptide 60, 90, and 91 significantly reduced activity of SauCas9 and SpyCas9 at 200 µM (P<0.005) | substrate cleavage, FRET assay, peptide 200 to 12.5 µM (Peptide 90): the peptides inhibited substrate cleavage in a peptide concentration-dependent manner | decrease in cleavage-based fluorescence at 200 µM peptide, FRET assay (82-2-21): All of the MPs drastically reduced SpyCas9 substrate cleavage at 200 µM with a greater than 88% decrease in fluorescence | substrate cleavage, denaturing 15% urea PAGE, peptide 200 µM (82-2-21): 17 hits were identified that reduced fluorescence and substrate cleavage in the Cas9 cleavage reaction (visualized by Gel) at 200 µM | decrease in cleavage-based fluorescence at 200 µM peptide, FRET assay (90-1-18): All of the MPs drastically reduced SpyCas9 substrate cleavage at 200 µM with a greater than 88% decrease in fluorescence | substrate cleavage, denaturing 15% urea PAGE, peptide 200 µM (90-1-18): 17 hits were identified that reduced fluorescence and substrate cleavage in the Cas9 cleavage reaction (visualized by Gel) at 200 µM | decrease in cleavage-based fluorescence at 200 µM peptide, FRET assay (90-1-27): All of the MPs drastically reduced SpyCas9 substrate cleavage at 200 µM with a greater than 88% decrease in fluorescence | substrate cleavage, denaturing 15% urea PAGE, peptide 200 µM (90-1-27): 17 hits were identified that reduced fluorescence and substrate cleavage in the Cas9 cleavage reaction (visualized by Gel) at 200 µM | % activity, FRET cleavage assay (Peptide 91): Peptide 60, 90, and 91 significantly reduced activity of SauCas9 and SpyCas9 at 200 µM (P<0.005) | substrate cleavage, FRET assay, peptide 200 to 12.5 µM (Peptide 91): the peptides inhibited substrate cleavage in a peptide concentration-dependent manner | substrate cleavage, FRET assay, peptide 200 to 12.5 µM (Peptide 63): the peptides inhibited substrate cleavage in a peptide concentration-dependent manner | decrease in cleavage-based fluorescence at 200 µM peptide, FRET assay (50-20-14): All of the MPs drastically reduced SpyCas9 substrate cleavage at 200 µM with a greater than 88% decrease in fluorescence | substrate cleavage, denaturing 15% urea PAGE, peptide 200 µM (50-20-14): 17 hits were identified that reduced fluorescence and substrate cleavage in the Cas9 cleavage reaction (visualized by Gel) at 200 µM | substrate cleavage, FRET assay, peptide 200 to 12.5 µM (Peptide 82): the peptides inhibited substrate cleavage in a peptide concentration-dependent manner | decrease in cleavage-based fluorescence at 200 µM peptide, FRET assay (60-1-10): All of the MPs drastically reduced SpyCas9 substrate cleavage at 200 µM with a greater than 88% decrease in fluorescence | substrate cleavage, denaturing 15% urea PAGE, peptide 200 µM (60-1-10): 17 hits were identified that reduced fluorescence and substrate cleavage in the Cas9 cleavage reaction (visualized by Gel) at 200 µM | substrate cleavage, FRET assay, peptide 200 to 12.5 µM (Peptide 80): the peptides inhibited substrate cleavage in a peptide concentration-dependent manner
